Substitutions are numbered along the chain they refer to. Numbers in names are those of the source.
Columns and labels:
Assay in all cases: cross-linking
[1] = target: T1, Atg7 with a Gly-Gly-Ser-Gly insertion after Leu291 (S. cerevisiae, UniProt P38862 1-630, Gly-Gly-Ser-Gly insertion after Atg7’s Leu291)
T1 sequence (looked up): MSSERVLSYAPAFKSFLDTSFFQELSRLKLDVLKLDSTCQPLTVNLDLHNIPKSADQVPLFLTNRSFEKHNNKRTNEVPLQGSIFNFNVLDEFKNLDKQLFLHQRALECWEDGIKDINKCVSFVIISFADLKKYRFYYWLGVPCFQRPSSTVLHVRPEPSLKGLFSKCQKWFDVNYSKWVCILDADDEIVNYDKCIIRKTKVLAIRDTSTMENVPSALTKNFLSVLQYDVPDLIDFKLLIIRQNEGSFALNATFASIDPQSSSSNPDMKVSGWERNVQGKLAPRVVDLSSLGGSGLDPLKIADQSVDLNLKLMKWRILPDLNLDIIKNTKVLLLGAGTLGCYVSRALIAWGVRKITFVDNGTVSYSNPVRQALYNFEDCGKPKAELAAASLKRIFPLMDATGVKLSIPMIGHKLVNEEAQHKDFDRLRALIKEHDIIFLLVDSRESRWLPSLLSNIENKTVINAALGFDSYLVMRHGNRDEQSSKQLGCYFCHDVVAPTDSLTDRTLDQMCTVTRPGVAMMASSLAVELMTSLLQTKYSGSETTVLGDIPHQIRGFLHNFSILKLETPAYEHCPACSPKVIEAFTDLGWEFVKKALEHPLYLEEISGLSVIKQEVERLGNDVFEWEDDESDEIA

Atg7 D47A N50A K53A = target: T2, Atg7 D47A N50A K53A (S. cerevisiae, UniProt P38862 1-630, D47A | N50A | K53A)
T2 sequence (looked up): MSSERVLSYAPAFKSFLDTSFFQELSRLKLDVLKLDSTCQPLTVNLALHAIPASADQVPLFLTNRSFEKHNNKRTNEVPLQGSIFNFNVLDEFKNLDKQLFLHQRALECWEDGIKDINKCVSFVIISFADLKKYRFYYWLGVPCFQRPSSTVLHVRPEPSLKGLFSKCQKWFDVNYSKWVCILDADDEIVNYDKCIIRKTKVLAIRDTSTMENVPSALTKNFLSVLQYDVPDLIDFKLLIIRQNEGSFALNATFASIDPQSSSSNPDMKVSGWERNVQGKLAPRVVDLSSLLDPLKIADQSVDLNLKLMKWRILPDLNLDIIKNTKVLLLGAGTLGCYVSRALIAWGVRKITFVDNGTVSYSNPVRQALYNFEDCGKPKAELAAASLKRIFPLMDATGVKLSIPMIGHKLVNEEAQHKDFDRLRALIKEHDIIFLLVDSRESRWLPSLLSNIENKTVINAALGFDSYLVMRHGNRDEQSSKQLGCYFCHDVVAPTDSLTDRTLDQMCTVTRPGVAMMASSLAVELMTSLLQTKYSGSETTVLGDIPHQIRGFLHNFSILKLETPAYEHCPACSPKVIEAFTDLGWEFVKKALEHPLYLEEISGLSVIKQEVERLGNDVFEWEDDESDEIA

Atg7 V285D = target: T3, Atg7 V285D (S. cerevisiae, UniProt P38862 1-630, V285D)
T3 sequence (looked up): T2 sequence (looked up) with A47D, A50N, A53K, V285D

Measured: binding result

B1: Atg3(C41A C76A C83A) (enzyme, S. cerevisiae)
chain: MIRSTLSSWREYLTPITHKSTFLTTGQITPEEFVQAGDYLAHMFPTWKWNEESSDISYRDFLPKNKQFLIIRKVPADKRAEQAVEVEGPDVIMKGFAEDGDEDDVLEYIGSETEHVQSTPAGGTKDSSIDDIDELIQDMEIKEEDENDDTEEFNAKGGLAKDMAQERYYDLYIAYSTSYRVPKMYIVGFNSNGSPLSPEQMFEDISADYRTKTATIEKLPFYKNSVLSVSIHPCKHANVMKILLDKVRVVRQRRRKELQEEQELDGVGDWEDLQDDIDDSLRVDQYLIVFLKFITSVTPSIQHDYTMEGW
modifications: Cys234 reacted with bismaleimidoethane (BMOE)
binds: [1] | Atg7 D47A N50A K53A | Atg7 V285D
